# Laboratory results reported in US20090123479A1 (published 2009).
# T1: recombinant human IL-23 (human, UniProt Q9NPF7 20-189; P29460 23-328)
# T1 construct: also called hIL-23
# T1 sequence 1: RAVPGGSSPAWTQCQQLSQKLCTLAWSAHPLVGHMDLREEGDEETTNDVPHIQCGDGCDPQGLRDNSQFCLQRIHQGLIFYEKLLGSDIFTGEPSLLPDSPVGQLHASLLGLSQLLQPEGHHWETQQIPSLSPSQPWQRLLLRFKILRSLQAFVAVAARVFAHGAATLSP
# T1 sequence 2: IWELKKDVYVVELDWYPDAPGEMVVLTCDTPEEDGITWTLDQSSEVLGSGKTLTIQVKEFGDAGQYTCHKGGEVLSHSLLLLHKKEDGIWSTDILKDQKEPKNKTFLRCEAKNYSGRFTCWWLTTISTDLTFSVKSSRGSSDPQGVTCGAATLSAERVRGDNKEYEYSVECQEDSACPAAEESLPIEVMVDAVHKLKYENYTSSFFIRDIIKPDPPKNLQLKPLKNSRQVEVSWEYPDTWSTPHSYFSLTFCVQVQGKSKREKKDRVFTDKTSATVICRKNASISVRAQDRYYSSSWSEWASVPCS
# B1: chimeric 8C92H6 HC1LC1 (antibody, V domains shown)
# VH: QVQLQQSGAELARPGTSVKLSCKASGYTFTSYGITWVKQRTGQGLEWIGENYPRSGNTYYNEKFKGKATLTADKSSSTAYMELRSLTSEDSAVYFCARCEFISTVVAPYYYALDYWGQGTSLVTVS
# VL: DIVLTQSPASLAVSLGQKATISCKASKKVTIFGSISALHWYQQKPGQPPKLIYNGAKLESGVSARFSDSGSQNRSPFGNQLSFTLTIDPVEADDAATYYCLQNKEVPYTFGGGTKLEIKR
# notes: Murine variable regions with human constant regions; also called 8C92H6.HC1LC1 Chimera; 8C9 chimera
# B2: A3M0 (antibody, human IgG1, kappa, V domains shown)
# VH: QVQLVQSGAEVKKPGSSVKVSCKASGYTFTSYGITWVRQAPGQGLEWMGENYPRSGNTYYNEKFKGRVTITADKSTSTAYMELSSLRSEDTAVYYCARSEFISTVVAPYYYALDYWGQGTLVTVSS
# VL: DIVMTQSPDSLAVSLGERATINCKASKKVTIFGSISALHWYQQKPGQPPKLIYNGAKLESGVPDRFSGSGSGTDFTLTISSLQAEDVAVYYCLQNKEVPYTFGGGTKVEIKR
# notes: Full length chains; also called humanized mAb A3M0
# Experiments:
# [1] = target: T1, recombinant human IL-23; test: SPR (Biacore T100), CHO supernatant antibody captured on Protein A or anti-human IgG, IL-23 analyte at 10 concentrations 128-0.25 nM
# Experimental: Protein A or an anti-human IgG (Biacore BR-1008-39) was immobilised on a Biacore CM5 chip by primary amine coupling in accordance with the manufacturer's instructions. Anti IL-23 antibodies were captured on this surface and after a period of stabilisation, […] was passed over the antibody captured surface and a binding sensorgram was obtained. […] All runs were double referenced with a buffer injection over the captured antibody surface. Data was analysed using the 1:1 model using the software inherent to the Biacore 3000 or T100 depending upon which machine was used to generate kinetics. Analysis was carried out at 25° C. using HBS-EP buffer. Data presented in Tables 3-6 are on tissue culture supernatants of CHO cells transiently expressing the antibody of interest unless otherwise indicated. […]
# [2] = target: T1, recombinant human IL-23; test: sandwich ELISA (optimised protocol, OD450): plate coated with anti-human IL-12, antibody pre-incubated with constant human IL-23, bound antibody detected with anti-human IgG gamma chain HRP; purified antibody
# Experimental: Optimised assay conditions: Plates were coated with anti human IL12 at 2 μg/diluent (phosphate buffered saline). 50 μl/well of this mixture was incubated overnight at 4° C. The plates were then washed three times with Phosphate Buffered Saline with 0.05% Tween 20 (PBST). Plates were blocked with 4% skim milk powder (Fluka BioChemika #70166) PBS 200 μl/well for a minimum of 1 hour at room temperature. The plates were then washed three times with Phosphate Buffered Saline+0.05% Tween 20 (PBST). Various concentrations of antibody were incubated in a separate plate with a constant concentration of IL-23 for 1 hour at room temperature. 50 ul of each mixture were transferred to the assay plate and incubated at RT for 1 hr. They were then washed three times with Phosphate Buffered Saline+0.05% Tween 20 (PBST). […] 50 μl/well of the detection antibody was added and incubated at RT for 1 hour. The plates were then washed three times with Phosphate Buffered Saline+0.05% Tween 20 (PBST). 50 μl/well of TMB was added to the plates and incubated at RT for 10 min. 50 μl/well of 1 MH₂SO₄ was added. The plate was read at OD450 nm using the SOftmaxPRO versamax plate reader.
# [3] = target: T1, recombinant human IL-23; test: IL-23/IL-23R inhibition ELISA (first protocol, OD490): plate coated with human IL23R Fc chimera, antibody pre-incubated with constant human IL-23, bound IL-23 detected with biotinylated anti-human IL-12; purified antibody
# Experimental: Chimeric and humanized mAbs were assessed for their ability to neutralise human IL-23 binding to human IL-23 receptor, and cyno IL23 binding to human IL23 receptor. Plates were coated with human IL23R Fc chimera at 1 μg/diluent (bicarbonate buffer). 50 μl/well of this mixture was incubated overnight at 4° C. The plates were then washed twice with Tris Buffered Saline with 0.05% Tween 20 (TBST). Plates were blocked with 1% BSA TBST 100 μl/well for a minimum of 1 hour at room temperature. The plates were then washed twice with Tris Buffered Saline with 0.05% Tween 20 (TBST). Various concentrations of antibody were incubated in a separate plate with a constant concentration of IL-23 for 1 hour at room temperature. 50 ul of each mixture were transferred to the assay plate and incubated at RT for 1 hr. They were then washed twice with Tris Buffered Saline with 0.05% Tween 20 (TBST). Bound IL23 was detected by anti human 1L12 Biotin labelled Ab (R&D systems BAF219) diluted to 100 ng/ml in 1% BSA TBST. 50 μl/well of the biotinylated antibody was added and incubated at RT for 1 hour. The plates were then washed twice with Tris Buffered Saline with 0.05% Tween 20 (TBST). ExtrAvidin-Peroxidase (Sigma E2886) was diluted 1/1000 in 1% BSA TBST, 50 μl/well was added to the plates. […] The plate was read at OD490 nm using the SOftmaxPRO versamax plate reader.
# [4] = target: T1, recombinant human IL-23; test: SPR (Biacore T100), CHO supernatant antibody captured on Protein A or anti-human IgG, IL-23 analyte at 256, 64, 16, 4, 1 nM
Binder,Kd [1] [nM],koff [1] [s⁻¹],kon [1] [M⁻¹ s⁻¹],EC50 (read off the curve) [2] [nM],IC50 (read off the curve) [3] [mg/L],Kd [4] [nM],koff [4] [s⁻¹],kon [4] [M⁻¹ s⁻¹]
B1,0.91,0.00029,320000,~0.06,~0.08,,,
B2,,,,,,0.92,0.00028,300000
